We go through 3 molecules from patent US20140004580A1, “MODIFIED PHOTOSYNTHETIC MICROORGANISMS FOR PRODUCING LIPIDS” (Matrix Genetics, LLC, priority 2010, published 2014).

Holding throughout (assay type): biochemical, Synechococcus elongatus PCC7942
For data set [1], the target named is h6-0489 (histidine-tagged orf0489 aldehyde dehydrogenase) (Synechococcus elongatus, UniProt Q31QZ8). Briefly: Enzymatic characterization of h6-0489 with fatty aldehydes of varying chain length (NADH production at 340 nm). How it is done:
(§1) The protein eluted off of SEC as a single monodisperse peak. The enzymatic characteristics of purified protein were then measured in vitro using fatty aldehydes of varying chain length (4-16) as substrate. In this assay, h6-0489 was incubated with 150 mM NaCl, 50 mM Tris, pH 7.5, 0.05% IGEPAL, 1 mM NAD+ and varying concentrations of the fatty aldehyde substrate being tested. The reaction was carried out in a cuvette with a 1 cm pathlength, and the progress was assessed by measuring the production of NADH at 340 nm using a SpectraMax M5 spectrophotometer. Measurements were taken every second for 2-5 minutes, and the initial velocities of each reaction were determined in the linear range. The A340 was converted into amount of NADH formed using the molar extinction coefficient for NADH (6200 M^−1 cm^−1). The Michaelis constants Km and Vmax were determined by fitting the data using non-linear progression in Prism to the equation Y=(Vmax*X)/(Km+X), where X=substrate concentration and Y=velocity. Kcat was determined from the equation Vmax=Kcat*Et, where Et=the concentration of h6-0489. Data are presented in Table C as averages of at least three different experiments, with errors presented as standard deviation.

For another data set, the system named is purified h6-orf0489. Briefly: orf0489 aldehyde dehydrogenase activity assay with nonyl-aldehyde (NAD(P)H production at 340 nm). The following applies: nonyl-aldehyde 1 mM; h6-orf0489 0.3, 1.5 or 6 μM; NAD+ or NAD(P)+ 1 mM; 30 minutes. Here is the method:
The reaction was started by mixing together a fatty aldehyde substrate, purified h6-orf0489 and NAD(P)+. The progress of the reaction was assessed by measuring the production of NAD(P)H at 340 nm using the SpectraMax M5. […] Nonyl-aldehyde and either NAD+ or NAD(P)+ were used at 1 mM. Measurements were taken every 30 seconds for 30 minutes.
To directly test whether orf0489 is an aldehyde dehydrogenase, a histidine-tagged version of this protein (h6-orf0489) was overexpressed in E. coli and purified using metal affinity chromatography. The purified protein was then employed in an in vitro reaction using a fatty aldehyde as a substrate.
The reaction was started by mixing together a fatty aldehyde substrate (nonyl-aldehyde at 1 mM), various concentrations of purified h6-orf0489 (0.3, 1.5 or 6 μM final concentration), and NAD+ or NAD(P)+ at 1 mM. The progress of the reaction was assessed by measuring the production of NAD(P)H at 340 nm using the SpectraMax M5; measurements were taken every 30 seconds for 30 minutes.

Substrate in data set [2]: CCCC=O
The data set is described as follows: Enzymatic characterization of h6-0489 with fatty aldehydes of varying chain length (NADH production at 340 nm). The following applies: other: aldehyde as substrate, 1 mM NAD+, pH 7.5, average of at least three experiments. How it is done: as §1

Substrate in data set [3]: CCCCCC=O
The description is as above. The following applies: other: aldehyde as substrate, 1 mM NAD+, pH 7.5, average of at least three experiments. How it is done: as §1

Substrate in data set [4]: CCCCCCCC=O
Described as above. The conditions noted are these: other: aldehyde as substrate, 1 mM NAD+, pH 7.5, average of at least three experiments. How it is done:
as §1

Substrate in data set [5]: CCCCCCCCCC=O
The data set is described as above. The conditions noted are these: other: aldehyde as substrate, 1 mM NAD+, pH 7.5, average of at least three experiments. Here is the method: as §1

Substrate in data set [6]: CCCCCCCCCCCC=O
Described as above. The conditions noted are these: other: aldehyde as substrate, 1 mM NAD+, pH 7.5, average of at least three experiments. How it is done:
as §1

A word on the Km: it is the substrate concentration at which the rate is half of its maximum. As usually defined, the kcat is the number of substrate molecules converted per active site and unit of time at saturation. The kcat/Km is the turnover number divided by the Michaelis constant.

Consider hexadecenal, for which the “kcat (AVE)” value in data set [1] (aldehyde as substrate, 1 mM NAD+, 150 mM NaCl, 50 mM Tris pH 7.5, 0.05% IGEPAL, average of at least three experiments) was found to be 647.8 min⁻¹. Moreover, the Km in data set [1] (aldehyde as substrate, 1 mM NAD+, pH 7.5, average of at least three experiments, read-out: (μM) (AVE) [Km]) was found to be 38.1 µM. Further, in data set [1] (in vitro), the “oxidation of the aldehyde to a free fatty acid by h6-0489 in vitro” value is on record as “able to oxidize hexadecenal to a free fatty acid”.
`CCCCCCCCC=O` [nonyl-aldehyde]: the “utilization as substrate (increased NAD(P)H production relative to controls)” value with purified h6-orf0489 was “utilizes nonyl-aldehyde as a substrate”.

B1: h6-0489 (histidine-tagged orf0489 aldehyde dehydrogenase) (Synechococcus elongatus PCC 7942 = FACHB-805) (protein)
chain: MTAVVLPAAAETLAALQATFDRGDTRTLAFRLARLQDLAKLVADNEAELLQALASDLRKPALEAYASEIYFVRDQIKLTCKHLRRWMQPEKQSISLMQQPGQAYRQAEPLGVVLIIGPWNYPFQLLITPLIGAIAAGNCAVLKPSELAPATSSLIQRLISDRFDPDYIRVLEGDASVSQALITQPFDHIFFTGGTAIGRKVMAAAAENLTPVTLELGGKSPCIVDTDIDLDVAARRIAWGKFFNAGQTCIAPDYLLVQRTVAEPFIEALIDNIQQFYGEDPQQSADYARIVSDRHWQRLNSLLVDGTIRHGGQVDRSDRYIAPTLITDVNWRDPILQEEIFGPLLPILIYDQLDEAIAQIRAQPKPLALYLFSRDRQVQERVLAETSAGSVCLNDTILQVGVPDAAFGGVGPSGMGGYHGKASFETFSHYKLVLKRPFWLDLALRYPPYGDKINLFRKL
On to B1, for which the Km in data set [2] worked out at 189.4 µM; in data set [3] it was 19.3 µM; in data set [4] it was 15.4 µM; in data set [5], 7.6 µM; in data set [6], 11.4 µM. The kcat turned out to be 7.65 s⁻¹ in data set [2]; 8.51 s⁻¹ in data set [3]; 13.5 s⁻¹ in data set [4]; 12.1 s⁻¹ in data set [5]; 9.29 s⁻¹ in data set [6]. Besides, the kcat/Km in data set [2] is 40000 M⁻¹ s⁻¹; in data set [3], 442000 M⁻¹ s⁻¹; in data set [4], 875000 M⁻¹ s⁻¹; in data set [5], 1.59e+06 M⁻¹ s⁻¹; in data set [6] it was 818000 M⁻¹ s⁻¹.
